Experimental data published in the supplement of paper PMC10567573.

B1: INTS4 (parent)
chain: TIIEPAGESDNPLRFTSGLVVALD
B2: ACBD3 (parent)
chain: YVASHKIEKEEQEKKRKEEEERRR

Variants of: B1
Experiment: protein stability index of a GFP-peptide fusion (GPS, HEK-293T) (PSI 1-6); higher = more stable
Settings: c terminus: a fixed tail appended
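Further: lentivirally expressed fusions sorted by FACS into six bins by GFP to DsRed ratio, PSI derived from sequencing read proportions per bin multiplied by bin number.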

| Variant | protein stability index |
| --- | --- |
| L23M | 3.26 |
| L23T | 3.92 |
| L23D | 4.53 |
| L23F | 2.75 |
| L23K | 4.07 |
| L23A | 4.1 |
| L23S | 4.35 |
| L23W | 2.97 |
| L23E | 4.4 |
| L23R | 3.6 |
| L23G | 4.16 |
| L23Q | 4.56 |
| L23Y | 3.29 |
| L23C | 3.62 |
| L23H | 3.81 |
| L23N | 4.1 |
| L23I | 2.4 |
| L23P | 4.17 |
| L23V | 3.1 |
| V20H | 3.28 |
| V20C | 3.38 |
| V20Y | 2.44 |

| Variant | protein stability index |
| --- | --- |
| V20G | 3.76 |
| V20W | 2.68 |
| V20A | 2.95 |
| V20N | 3.46 |
| V20Q | 3.91 |
| V20K | 3.75 |
| V20T | 3.82 |
| V20S | 3.77 |
| V20F | 2.31 |
| V20E | 4.03 |
| V20D | 4.38 |
| V20M | 2.59 |
| V20P | 4.23 |
| V20I | 2.73 |
| V20L | 2.53 |
| V20R | 3.38 |
| A22N | 3.18 |
| A22C | 2.6 |
| A22L | 1.73 |
| A22H | 2.78 |
| A22V | 1.95 |
| A22D | 3.8 |

| Variant | protein stability index |
| --- | --- |
| A22E | 4.07 |
| A22F | 2.03 |
| A22T | 2.78 |
| A22I | 1.61 |
| A22M | 2.26 |
| A22Y | 2.45 |
| A22K | 3.21 |
| A22W | 1.87 |
| A22G | 2.85 |
| A22Q | 2.65 |
| A22R | 2.93 |
| A22S | 3.2 |
| A22P | 3.58 |
| L19M | 2.83 |
| L19Q | 4.05 |
| L19T | 4.16 |
| L19S | 4.77 |
| L19V | 3.33 |
| L19W | 1.98 |
| L19H | 3.59 |
| L19P | 3.72 |
| L19Y | 2.62 |

| Variant | protein stability index |
| --- | --- |
| L19R | 4.01 |
| L19I | 2.71 |
| L19N | 4.11 |
| L19K | 4.27 |
| D24W | 2.4 |
| D24G | 2.51 |
| D24N | 2.12 |
| D24M | 1.98 |
| D24Y | 2.31 |
| D24R | 1.9 |
| D24S | 2.06 |
| D24F | 4.12 |
| D24E | 2.38 |
| D24I | 1.33 |
| D24C | 1.35 |
| D24Q | 2.29 |
| D24A | 2.75 |
| D24K | 2.19 |
| D24H | 1.93 |
| D24P | 2.31 |
| D24T | 2.2 |
| D24L | 1.73 |

| Variant | protein stability index |
| --- | --- |
| D24V | 2.33 |
| V21N | 3.63 |
| V21M | 2.84 |
| V21I | 2.78 |
| V21Y | 3 |
| V21W | 2.16 |
| V21C | 3.48 |
| V21K | 3.45 |
| V21A | 3.36 |
| V21E | 4.5 |
| V21G | 3.65 |
| V21S | 3.51 |
| V21Q | 3.71 |
| V21T | 3.67 |
| V21F | 2.37 |
| V21L | 2.89 |
| V21D | 4.92 |
| V21P | 3.93 |
| V21H | 3.27 |
| V21R | 3.67 |

Variants of: B2
Experiment: as above
Settings: c terminus: a fixed tail appended

| Variant | protein stability index |
| --- | --- |
| I7D | 3.86 |
| I7Q | 2.25 |
| I7F | 2.53 |
| I7V | 2.43 |
| I7K | 2.89 |
| I7M | 2.56 |
| I7E | 2.89 |
| I7W | 1.81 |
| I7L | 2.37 |
| I7T | 3.09 |
| I7P | 3.35 |
| I7R | 2.67 |
| I7A | 3.29 |
| I7H | 3.1 |
| I7G | 3.13 |
| I7Y | 2.36 |
| I7C | 3.86 |
| I7S | 3.22 |
| E8K | 2.57 |
| E8V | 2.1 |
| E8S | 2.83 |
| E8D | 2.74 |
| E8T | 2.13 |
| E8I | 2.16 |
| E8R | 2.81 |
| E8C | 2.42 |

| Variant | protein stability index |
| --- | --- |
| E8L | 2.33 |
| E8W | 2.03 |
| E8H | 1.96 |
| E8Y | 2.32 |
| E8N | 2.36 |
| E8P | 2.29 |
| E8A | 2.23 |
| E8F | 1.12 |
| E8Q | 2.14 |
| E8G | 2.49 |
| E8M | 1.75 |
| A3W | 2.85 |
| A3C | 2.5 |
| A3F | 3.72 |
| A3Y | 2.13 |
| A3P | 1.47 |
| A3E | 2.84 |
| A3S | 3.04 |
| A3N | 2.39 |
| A3M | 3.14 |
| A3R | 2.01 |
| A3Q | 3.36 |
| A3L | 3.09 |
| A3H | 2.15 |
| A3I | 2.61 |
| A3T | 2.98 |

| Variant | protein stability index |
| --- | --- |
| A3V | 3.36 |
| A3G | 2.33 |
| A3D | 3.91 |
| A3K | 2.95 |
| K6Q | 3.76 |
| K6G | 2.96 |
| K6Y | 2.12 |
| K6H | 3.21 |
| K6M | 3.21 |
| K6F | 2.79 |
| K6V | 2.95 |
| K6D | 4.14 |
| K6T | 2.88 |
| K6R | 2.74 |
| K6I | 2.66 |
| K6P | 2.67 |
| K6C | 2.98 |
| K6S | 2.77 |
| K6L | 2.66 |
| K6E | 3.67 |
| K6N | 2.7 |
| E13H | 2.25 |
| E13D | 2.9 |
| E13C | 2.66 |
| E13L | 2.27 |
| E13F | 2.39 |

| Variant | protein stability index |
| --- | --- |
| E13G | 2.15 |
| E13K | 1.73 |
| E13I | 2.22 |
| Q12R | 2.26 |
| Q12W | 1.93 |
| Q12H | 2.27 |
| Q12S | 1.82 |
| Q12V | 2.02 |
| Q12N | 2.18 |
| Q12I | 3.33 |
| Q12G | 2.88 |
| Q12L | 2.78 |
| Q12P | 2.31 |
| Q12D | 3.76 |
| Q12K | 2.12 |
| Q12T | 2.52 |
| Q12F | 1.96 |
| Q12C | 2.92 |
| Q12Y | 2.67 |
| Q12E | 3.63 |
| Q12A | 3.33 |
| H5V | 3.05 |
| H5W | 2 |
| H5D | 4.25 |
| H5K | 2.61 |
| H5A | 3.1 |

| Variant | protein stability index |
| --- | --- |
| H5E | 4.24 |
| H5T | 3 |
| H5L | 2.82 |
| H5R | 2.46 |
| H5F | 2.24 |
| H5Q | 2.7 |
| H5I | 3.02 |
| H5S | 3.07 |
| H5M | 2.5 |
| H5G | 1.92 |
| H5P | 3.08 |
| H5N | 2.4 |
| H5Y | 2.42 |
| V2T | 5.24 |
| V2P | 5.11 |
| V2D | 5.36 |
| V2S | 5.25 |
| V2Y | 4.75 |
| V2M | 5.36 |
| V2N | 5.04 |
| V2Q | 4.57 |
| V2K | 5.05 |
| V2L | 5.22 |
| V2C | 4.4 |
| V2R | 5.49 |
| V2W | 4.93 |

| Variant | protein stability index |
| --- | --- |
| V2E | 5.85 |
| V2F | 5.16 |
| V2I | 4.51 |
| V2A | 4.73 |
| V2H | 4.14 |
| V2G | 5.36 |
| E11F | 3.47 |
| E11T | 4.28 |
| E11D | 2.75 |
| E11A | 3.79 |
| E11S | 2.57 |
| E11H | 3.12 |
| E11L | 2.13 |
| E11V | 1.98 |
| E11Y | 2.37 |
| E11R | 1.93 |
| E11I | 2.24 |
| E11G | 2.34 |
| E11M | 2.2 |
| E11W | 2.67 |
| E11K | 1.71 |
| E11Q | 2.79 |
| E11C | 2.55 |
| E11P | 1.76 |
| K9W | 1.86 |
| K9L | 3.07 |

| Variant | protein stability index |
| --- | --- |
| K9Y | 2.28 |
| K9S | 2.78 |
| K9F | 2.72 |
| K9T | 2.42 |
| K9A | 3.03 |
| K9G | 2.5 |
| K9V | 2 |
| K9N | 3.19 |
| K9Q | 3.22 |
| K9I | 2.29 |
| K9E | 3.42 |
| K9R | 1.84 |
| K9D | 3.61 |
| K9C | 2.5 |
| K9M | 2.8 |
| S4L | 2.67 |
| S4G | 2.39 |
| S4W | 1.49 |
| S4P | 3.8 |
| S4N | 2.16 |
| S4R | 2.57 |
| S4Y | 2.49 |
| S4D | 3.95 |
| S4E | 3.05 |
| S4M | 2.1 |
| S4V | 3.28 |

| Variant | protein stability index |
| --- | --- |
| S4F | 2.07 |
| S4Q | 3.14 |
| S4C | 2.81 |
| S4K | 3.67 |
| S4T | 2.74 |
| S4H | 2.62 |
| S4A | 2.9 |
| Y1M | 5.6 |
| Y1V | 5.68 |
| Y1D | 5.55 |
| Y1R | 5.49 |
| Y1F | 2.11 |
| Y1S | 5.5 |
| Y1H | 5.57 |
| Y1L | 5.56 |
| Y1K | 5.87 |
| Y1E | 5.83 |
| Y1C | 4.93 |
| Y1A | 5.78 |
| Y1P | 5.43 |
| Y1T | 5.43 |
| Y1W | 5.65 |
| Y1I | 5 |
| Y1Q | 5.5 |
| Y1G | 4.73 |
| Y1N | 5.77 |

| Variant | protein stability index |
| --- | --- |
| E10T | 2.08 |
| E10Q | 1.88 |
| E10A | 1.55 |
| E10R | 1.87 |
| E10K | 2.46 |
| E10N | 2.79 |
| E10F | 1.76 |
| E10P | 1.78 |
| E10L | 2.95 |
| E10V | 2.46 |
| E10D | 2.42 |
| E10H | 1.66 |
| E10Y | 2.08 |
| E10I | 2.1 |
| E10S | 3.11 |
| E10C | 2.19 |
| E10M | 2.42 |
| E10G | 1.9 |
